This note sets out measurements from patent US20120208867, “HMGB1 BINDING NUCLEIC ACID MOLECULE AND APPLICATIONS THEREOF” (published 2012).

Series [1] has as its target T1, His-tagged HMGB1 (UniProt P09429 P09429:1-215). Description: SPR; 200 nM protein, 150 mM NaCl; above unmodified 40N. The conditions noted are these: tags: N-terminal His-tag. The procedure: (§1) First, a sensor chip (trade name: Sensor Chip SA, manufactured by GE Heathcare) specially made for a BIACORE was set on the aforementioned BLACORE (registered trademark) X. Biotinylate deoxythymidine (5 μmol/L) was injected into the flow cell 2 of the aforementioned sensor chip using a running buffer and subjected to binding until the signal intensity (RU: resonance unit) reached about 1000 RU. For the aforementioned biotinylated deoxythymidine, 20-base-long deoxythymidine in which the 5′ end was biotinylated was used. Then, 10 μg/mL of an RNA aptamer was injected at a flow rate of 20 μL/min for 1 min into the aforementioned flow cells 1 and 2 of the aforementioned chip using a running buffer and subjected to binding until the signal intensity reached about 1000 RU. Next, 675 nmol/L of the aforementioned His-tag-added HMGB1 was injected at a flow rate of 20 μL/min for 30 sec using the aforementioned running buffer, and under the same conditions the aforementioned running buffer was allowed to flow continuously for washing. Simultaneously with the injection of the aforementioned His-tag-added HMGB1 and washing with the aforementioned running buffer, signal intensity was measured. The aforementioned running buffer was composed of 20 mmol/L of HEPES, 500 mmol/L of NaCl, 0.1 mmol/L of MgCl₂, and 0.1% Triton X-100 (registered trademark), with the pH thereof being 7.2. As a blocking agent for suppressing nonspecific binding, tRNA was used in a concentration of 1 mg/mL. In a comparative example, signal intensity was measured in the same manner except that the aforementioned comparative example RNA was used in place of the aforementioned example RNA aptamers.
An analysis of ability to bind to the aforementioned His-tag-added HMGB1 (manufactured by Sigma) was carried out in the same manner as in (2) above of the aforementioned Example 1 except that the aforementioned fluorinated RNA aptamers were used, the concentration of the aforementioned His-tag-added HMGB1 was 200 nmol/L, the concentration of NaCl in the aforementioned running buffer was 150 mmol/L, and the injection time of the aforementioned His-tag-added HMGB1 was 60 seconds. Also, an analysis was carried out in the same manner on unmodified R8c6_{—}1 that was not fluorinated.
On the technique in general: Surface plasmon resonance follows binding to a sensor surface in real time, without labels.

For series [2], the target named is HMGB1 (no His-tag) (UniProt P09429 P09429:1-215). The experiment in a line: SPR; 1 uM untagged HMGB1, 500 mM NaCl. The conditions noted are these: tags: none. How it is done:
as §1
The ability of each of the aforementioned RNA aptamers to bind to HMGB1 in which no His-tag was added to the N-terminus was examined. An analysis of the aforementioned binding ability was carried out in the same manner as in (2) above except that 1 μmol/L of the aforementioned HMGB1 was used in place of the aforementioned His-tag-added HGB1 and the injection time of the aforementioned HMGB1 was 60 sec.

In series [3] the target is T1, His-tagged HMGB1. The experiment in a line: SPR; physiological 150 mM NaCl. The following applies: tags: N-terminal His-tag. The procedure:
as §1
The ability of each of the aforementioned RNA aptamers to bind to HMGB1 under physiological conditions was examined. An analysis of binding ability was carried out in the same manner as in (2) above except that the 500 mmol/L NaCl concentration of the aforementioned running buffer was changed so as to conform to the physiology condition of a living body of 150 mmol/L, and the injection time of the aforementioned His-tag-added HMGB1 was 45 sec.

Series [4] concerns the target His-tagged MIF (UniProt P14174 P14174:2-115). The experiment in a line: SPR; 300 nM His-MIF specificity control. How it is done: as §1
The ability of each of the aforementioned RNA aptamers to bind to His-tag was examined. An analysis of the aforementioned binding ability was carried out in the same manner as in (2) above except that 300 nmol/L of the aforementioned His-tag-added MIF protein was used in place of the aforementioned His-tag-added HMGB1.

Series [5] has as its target T1, His-tagged HMGB1. The experiment in a line: SPR; 200 nM protein, 500 mM NaCl. The following applies: tags: N-terminal His-tag. The procedure:
as §1
An analysis of ability to bind to His-tag-added HMGB1 was carried out in the same manner as in (2) above of the aforementioned Example 1 except that the aforementioned fluorinated RNA aptamers were used, the concentration of His-tag-added HMGB1 was 200 nmol/L, and the injection time of the aforementioned His-tag-added HMGB1 was 60 seconds. Also, an analysis was carried out in the same manner on the aforementioned 2′F-40N and unmodified R8c6_{—}1 that was not fluorinated.

Series [6] concerns the target T1, His-tagged HMGB1. The experiment in a line: SPR; 160 nM protein. The conditions noted are these: tags: N-terminal His-tag. How it is done:
as §1
An analysis of ability to bind to His-tag added HMGB1 was carried out in the same manner as in (2) above of the aforementioned Example 1 except that the aforementioned RNA aptamers were used, and the concentration of the aforementioned His-tag-added HMGB1 was 160 nmol/L. Also, an analysis was carried on the aforementioned 40N as a comparative example in the same manner. FIGS. 12 and 13 show the results.

Series [7] deals with T1, His-tagged HMGB1. The experiment in a line: SPR; superior to R8c6_1; 635 nM protein. The following applies: tags: N-terminal His-tag. The procedure: as §1
An analysis of ability to bind to His-tag-added HMGB1 was carried out in the same manner as in (2) above of the aforementioned Example 1 except that the aforementioned RNA aptamers were used, the concentration of the aforementioned His-tag-added HMGB1 was 635 nmol/L, and the injection time of the aforementioned His-tag-added HMGB1 was 60 seconds. Also, an analysis was carried on the aforementioned 40N as a comparative example in the same manner.

Chain of His-tagged MIF (P14174 2-115, one chain of several): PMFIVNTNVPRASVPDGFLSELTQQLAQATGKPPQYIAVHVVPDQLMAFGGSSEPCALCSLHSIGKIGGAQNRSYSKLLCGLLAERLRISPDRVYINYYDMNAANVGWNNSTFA
T1 sequence (P09429 whole entry, one chain of several): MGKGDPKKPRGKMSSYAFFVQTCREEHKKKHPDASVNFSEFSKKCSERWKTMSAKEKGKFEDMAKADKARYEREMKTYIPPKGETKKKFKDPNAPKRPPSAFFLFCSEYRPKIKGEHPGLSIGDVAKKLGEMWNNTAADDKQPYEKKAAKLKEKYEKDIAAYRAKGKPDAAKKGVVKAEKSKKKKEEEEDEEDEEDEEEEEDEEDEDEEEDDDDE
Chain of HMGB1 (no His-tag) (P09429 whole entry, one chain of several): as above

B1: 2'F-CU-R4_9068 (ssRNA)
RNA: GGGACGCUCACGUACGCUCAUGAUAUUUAAAUUUGGCCGCGUUUAAAACAUCCCCUACGAUCAGUGCCUGGACGUGCAGU
modifications: 2'-F on all C and U
As for B1, in series [1], the binding result was “binds”.

B2: 2'F-U-R4_9068 (ssRNA)
RNA: GGGACGCUCACGUACGCUCAUGAUAUUUAAAUUUGGCCGCGUUUAAAACAUCCCCUACGAUCAGUGCCUGGACGUGCAGU
modifications: 2'-F on all U
For B2, in series [1], the binding result is recorded as “binds”.

B3: 2'F-C-R4_9068 (ssRNA)
RNA: GGGACGCUCACGUACGCUCAUGAUAUUUAAAUUUGGCCGCGUUUAAAACAUCCCCUACGAUCAGUGCCUGGACGUGCAGU
modifications: 2'-F on all C
Regarding B3, the binding result in series [1] was “binds”.

B4: #34 (ssRNA)
RNA: GGGACGCUCACGUACGCUCAAUUCACCUCAGCAUGUCCGCUUGUGACGAUGGAGGCACCUUCAGUGCCUGGACGUGCAGU
Consider B4, for which the binding result in series [2] was “binds”; in series [3], “binds”; in series [4], “no binding”.

B5: #80 (ssRNA)
RNA: GGGACGCUCACGUACGCUCACAUCUGAAUUUAAGCCACGUAGAACCAGGCCCUCCACGCGUCAGUGCCUGGACGUGCAGU
For B5, the results for the binding result in series [2], in series [3] and in series [4] were “binds”, “binds” and “no binding”, respectively.

B6: 2'F-U-#80 (ssRNA)
RNA: GGGACGCUCACGUACGCUCACAUCUGAAUUUAAGCCACGUAGAACCAGGCCCUCCACGCGUCAGUGCCUGGACGUGCAGU
modifications: 2'-F on all U
In the case of B6, in series [1], the binding result was “binds”.

B7: 2'F-C-#80 (ssRNA)
RNA: GGGACGCUCACGUACGCUCACAUCUGAAUUUAAGCCACGUAGAACCAGGCCCUCCACGCGUCAGUGCCUGGACGUGCAGU
modifications: 2'-F on all C
Regarding B7, in series [1], the binding result is on record as “binds”.

B8: 2'F-R8c6_1-1 (ssRNA)
RNA: GGGACGCUCACGUACGCUCAGAGUACAGUAAGACACGUAGCACCAGUCUGACGUUUGUCGUCAGUGCCUGGACGUGCAG
modifications: 2'-F on all C and U
Turning to B8, the binding result in series [5] is reported as “binds”.

Consider GGGAGUACAGUAAGACACGUAGCACCAGUGUGCCUGGACGUGCAGU (ssRNA) [R8c6_1-18-S6], for which the binding result in series [6] is listed as “binds”.

B9: #47 (ssRNA)
RNA: GGGACGCUCACGUACGCUCAAAAAACUACUGCCGAACCGUAAGACACGUAGAACCAGGCAUCAGUGCCUGGACGUGCAGU
Turning to B9, the binding result in series [2] was “binds”; in series [3], “binds”; in series [4], “no binding”.

B10: R8c6_1-18 (ssRNA)
RNA: GGGAGUACAGUAAGACACGUAGCACCAGUCUGACGUUUGUCGUCAGUGCCUGGACGUGCAGU
Take B10: the binding result in series [7] is given as “binds”.

B11: R8c6_1-21 (ssRNA)
RNA: GGGACAGUAAGACACGUAGCACCAGUCUGACGUUUGUCGUCAGUGCCUGGACGUGCAGU
With B11, in series [7], the binding result is reported as “binds”.

B12: 2'F-R8c6_1-21 (ssRNA)
RNA: GGGACAGUAAGACACGUAGCACCAGUCUGACGUUUGUCGUCAGUGCCUGGACGUGCAGU
modifications: 2'-F on all C and U
For B12, the binding result in series [5] was “binds”.

B13: #10 (ssRNA)
RNA: GGGACGCUCACGUACGCUCAUAGUCAAGGUGAAAACCCCCAUAGAGACUUCAGUGCCUGGACGUGCAGU
On to B13, for which the figures for the binding result in series [2], in series [3] and in series [4] were “binds”, “binds” and “no binding”, respectively.

B14: R8c6_1-18-S4 (ssRNA)
RNA: GGGAGUACAGUAAGACACGUAGCACCAGUCGUUUGUCGUGCCUGGACGUGCAGU
Consider B14, for which, in series [6], the binding result is “binds”.

B15: 2'F-R8c6_1-4 (ssRNA)
RNA: GGGACGCUCACGUACGCUCAGAGUACAGUAAGACACGUAGCACCAGUCUGACGUUUGUCGUCAGUGCCUGGACGUG
modifications: 2'-F on all C and U
Consider B15, for which, in series [5], the binding result is listed as “binds”.

B16: #08 (ssRNA)
RNA: GGGACGCUCACGUACGCUCAAGUCCCUUGACACGUCCGUUUUCUAACUGGAAUAGAGGCCUCAGUGCCUGGACGUGCAGU
On to B16, for which the binding result in series [2] is “binds”; in series [3], “binds”; in series [4] it was “no binding”.

B17: #36 (ssRNA)
RNA: GGGACGCUCACGUACGCUCACCUAGCACGUCCGUUUCUGGAUCUGUCAGUUAGAGGCCUAUCAGUGCCUGGACGUGCAGU
For the molecule B17, the binding result is reported as “binds” in series [2], “binds” in series [3] and “no binding” in series [4].

B18: R8c6_1-15 (ssRNA)
RNA: GGGCAGAGUACAGUAAGACACGUAGCACCAGUCUGACGUUUGUCGUCAGUGCCUGGACGUGCAGU
As for B18, the binding result in series [7] was “binds”.

B19: 2'F-R8c6_1-15 (ssRNA)
RNA: GGGCAGAGUACAGUAAGACACGUAGCACCAGUCUGACGUUUGUCGUCAGUGCCUGGACGUGCAGU
modifications: 2'-F on all C and U
For the molecule B19, the binding result in series [5] is recorded as “binds”.

Turning to GGGUAGCACCAGUCUGACGUUUGUCGUCAGUGCCUGGACGUGCACC (ssRNA) [R8c6_1-34CC], in series [6], the binding result was “binds”.

B20: #06 (ssRNA)
RNA: GGGACGCUCACGUACGCUCAUACACUGCACGCUCCGCUUUGAACAUCAAUGGAGGCCCUGUCAGUGCCUGGACGUGCAGU
B20: the binding result in series [2] is given as “binds”; in series [3], “binds”; in series [4] it was “no binding”.

Turning to GGGCACGUAGCACCAGUCUGACGUUUGUCGUCAGUGCCUGGACGUGCAGU (ssRNA) [R8c6_1-30], in series [6], the binding result is recorded as “binds”.

B21: R8c6_1-20 (ssRNA)
RNA: GGGUACAGUAAGACACGUAGCACCAGUCUGACGUUUGUCGUCAGUGCCUGGACGUGCAGU
Regarding B21, in series [7], the binding result was “binds”.
